One series deals with MRSA strain NRS 384. The series is described as follows: Methicillin resistance development under stepwise methicillin exposure. The series is classed as cell-based. The conditions noted are these: Staphylococcus aureus, read-out: Methicillin MIC after adaptation, NRS 384. The text has this: ALAFAC and Methicillin Resistance Development. Experiments were designed to test the impact of ALAFAC on the adaptation of MRSA to methicillin in liquid cultures, and to test ALAFAC's potential to inhibit resistance increase during antibiotic pressure. […]

The test system of series [1] is Staphylococci. The series is described as follows: Membrane integrity assays (propidium iodide, ATP, A260 leakage). The series is classed as cell-based, Staphylococcus aureus. The conditions noted are these: S. aureus; data not shown. How it is done:
Membrane Integrity Assays. To evaluate the effect of […] on membrane integrity, Staphylococci were exposed to […] and antibacterial agents at indicated concentrations for 50 minutes at 37° C. in PBS. The detergent Triton X-100 (0.1%) was used as a control, known to cause extensive membrane rupture. After treatment the leakage of soluble components (DNA RNA and protein) were measured from supernatant obtained after centrifugation of the bacterial suspension at 13,000×g for 5 min, by measuring the absorbance at 260 nm in a BioTek Synergy 2 plate reader with the Take3 microdrop addition (Biotek). Cellular release of the small molecule ATP (MW 507) that was measured from the same supernatants using the ATP determining kit (Invitrogen), which measures the luminescence of oxyluciferin produced from the oxidation of luciferin by luficerase, a process that requires ATP degradation. […] Where applicable, independent readings were also taken in the presence of antibacterial agents alone to enable corrections for potential background leakage.

A further series relates to NRS 384 Staphylococci. The series is described as follows: Intracellular pH measurement (BCECF-AM). The series is classed as cell-based, Staphylococcus aureus. The conditions noted are these: ALAFAC 100 μg/mL (6 μM), RuR 30 μM, Amiloride 1 mM. The text has this: Intracellular pH measurement. A reported protocol for intracellular pH (pHi) measurement was modified and optimized for S. aureus by testing the effect of various dye concentrations and staining times on the measured fluorescence of S. aureus isolate NRS 384 grown to mid-log phase. Cell samples were subjected to increasing concentrations of the membrane-permeant acetoxymehtyl (AM) ester derivative of the dual-excitation ratiometric pH indicator dye BCECF (2′,7′-bis-(2-carboxyethyl)-5-(and-6)-carboxyfluorescein), for 30 minutes at 30° C. Fluorescence was measured as a ratio of fluorescence at 530 nm with dual wavelength excitation at 490 and 440 nm and calibration curves were established for each independent experiment. After testing a number of loading concentrations we observed that the fluorescence ratios remains generally constant when concentrations above 20 μM was used. Therefore 25 μM BCECF-AM was used for all experiments. The optimized staining time, 30 minutes, was determined using the same criteria and was used for all experiments. After loading, the cells were washed twice in PBS by centrifugation and the resulting pellet was resuspended in PBS to the original volume and ALAFAC and ALAFAC/antibiotic combinations were added. CCCP was added as a positive control. CCCP is a lipophilic weak acid that is soluble in the lipid domain of the membrane in both the protonated and deprotonated form. This allows it to act as a protonophore causing an influx of H^+ into the cytoplasm, dissipating both the electrical potential and the H^+ gradient across the inner membrane. For each experiment calibration was performed where cells were resuspended in high [K^+] buffers at different pH values ranging from 6.5 to 8.0.

The subject of series [2] is Staphylococci. The series is described as follows: Bactericidal activity of ALAFAC alone. The class given is cell-based.
For series [3], the system named is Escherichia coli. The series is described as follows: Bactericidal activity of ALAFAC alone. The class given is cell-based.
Series [4] has as its system Staphylococci. The settings on record: concentrations up to 5 mg/ml; cited from earlier work.
The test system of series [5] is Escherichia coli. The conditions noted are these: concentrations up to 5 mg/ml; cited from earlier work.
For the next series, the system named is Pseudomonas aeruginosa. The settings on record: concentrations up to 5 mg/ml; cited from earlier work.
A further series has as its system Moraxella catarrhalis. The conditions noted are these: 2 mg/ml; cited from earlier work.
The conditions of series [6]: in vivo; cited from earlier work.

Consider 2 molecules from patent publication US9526766B2, “Potentiation of antibiotic treatment with a protein-lipid complex” (priority 2012, dated 2016).

In general, MIC refers to the least concentration at which growth counts as inhibited.

≈ marks a conversion by molar mass, not a printed value. Where two headings read alike, the source gives them in different places.

As to `COc1cccc(OC)c1C(=O)N[C@@H]1C(=O)N2[C@@H]1SC(C)(C)[C@@H]2C(=O)O` [Methicillin, methicillin], the MIC with MRSA strain NRS 384 (8 cycles with increasing methicillin, no ALAFAC) stood at 512 µg/mL (≈ 1350 µM); with MRSA strain NRS 384 (10 cycles in methicillin plus ALAFAC 100 μg/mL (6 μM), MIC tested without ALAFAC), 64 µg/mL.

B1: ALAFAC: non-covalent complex of alpha-lactalbumin and fatty acid (oleic acid); labeled HAMLET or HL in drawings and tables (protein, UniProt P00709 20-142, looked up)
Alpha-lactalbumin: KQFTKCELSQLLKDIDGYGGIALPELICTMFHTSGYDTQAIVENNESTEYGLFQISNKLWCKSSQVPQSRNICDISCDKFLDDDITDDIMCAKKILDIKGIDYWLAHKALCTEKLEQWLCEKL
modifications: complexed with oleic acid
B1: the “Membrane damage (propidium iodide staining; leakage of ATP, DNA, RNA)” value in the series on Staphylococci [1] is recorded as “no membrane damage”. In addition, the “Transmembrane proton gradient (intracellular pH)” value in the series on NRS 384 Staphylococci is “effectively dissipated the proton gradient”. Moreover, the “Concentration of ALAFAC not triggering death” value in the series on Staphylococci [2] and in the series on Escherichia coli [3] was “exceeding 1,000 μg/ml” throughout. Also, the Storage time result (physiological buffer (0.9% saline or PBS) at 4° C.) was “at least 3 months” and the Storage time entry (room temperature) is given as “at least three”. The Bactericidal activity result in the series with Staphylococci [4], in the series on Escherichia coli [5] and in the series on Pseudomonas aeruginosa was “no detectable activity” throughout. In addition, the Reduction of bacteria result in the series on Moraxella catarrhalis is recorded as “less than 90%”. In addition, the Toxic side effects entry in series [6] is recorded as “without showing any toxic side effects”.
